Laboratory results: patent publication US20240301059A1 (PIONYR IMMUNOTHERAPEUTICS, published 2024)

Legend:
[1] = target: T1, mouse TREM2 on Expi 293 cells (mouse, UniProt Q99NH8 19-227); assay: flow cytometry on Expi 293 cells over-expressing mouse TREM2; Alexa Fluor 647 anti-Fc secondary
T1 construct: also called Expi-mTREM2; mTREM2
T1 sequence: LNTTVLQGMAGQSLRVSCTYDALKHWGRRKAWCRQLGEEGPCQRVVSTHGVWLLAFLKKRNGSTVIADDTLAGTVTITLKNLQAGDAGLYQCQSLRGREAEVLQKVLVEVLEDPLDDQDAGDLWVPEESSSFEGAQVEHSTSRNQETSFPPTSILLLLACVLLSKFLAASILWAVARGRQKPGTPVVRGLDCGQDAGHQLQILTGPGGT
Method: (§1) 100,000 to 500,000 Expi 293 parental cells or Expi 293 cells over-expressing human or mouse TREM2 were plated in 96 well plates and dead cells were stained with Zombie Near Infrared (Biolegend). Titrations of indicated unconjugated antibodies were incubated with these cells within a range of 0 ug/ml to 10 ug/ml in a 1:3 dilution range across 8-10 points. Dependent on their isotype (hIgG1 or mIgG2a), these primary unconjugated antibodies were detected with Alexa Fluor 647 conjugated anti-human Fc or anti-mouse Fc secondary antibodies (Jackson Immunoresearch). Alexa Fluor 647 signal was measured by flow cytometry (BD Fortessa X-14, BD Biosciences). EC50 values were calculated by curve fitting signal generated from antibodies binding to over-expressing cells over background fluorescence generated from HEK293 parental cells in Graphpad Prism (Graphpad Software).

[2] = target: T2, TREM2 human IgG1 Fc fusion protein (human, UniProt Q9NZC2 19-174, limits assumed); assay: SPR, Biacore T200; TREM2-Fc amine-coupled to CM5 chip, antibody injected; 1:1 Langmuir fit
T2 construct: In-house, SEC purified to >95% purity; also called human TREM2-Fc; not shown: human IgG1 Fc
T2 sequence: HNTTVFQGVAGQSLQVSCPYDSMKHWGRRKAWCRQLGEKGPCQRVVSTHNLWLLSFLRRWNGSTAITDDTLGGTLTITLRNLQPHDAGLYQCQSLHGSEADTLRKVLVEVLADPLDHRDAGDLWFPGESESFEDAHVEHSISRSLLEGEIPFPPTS
Method: (§2) Binding kinetics were determined by surface plasmon resonance using a Biacore T200 (GE Healthcare, UK) with human TREM2 His (Sino Biological, Beijing, P.R.China) or […] captured on Series S CM5 chips through anti-His capture or TREM2 human IgG1 Fc fusion protein (in-house SEC purified to >95% purity) directly immobilized to chips by amine coupling. Serial dilutions of indicated antibodies were injected at 30 ul/minute for 2 minutes. PBS or system buffer was then injected at 30 ul/minute for 400 seconds to observe dissociation. Binding responses were corrected by subtraction of responses on a blank flow cell. For kinetic analysis, a 1:1 Langmuir model of global fittings of kₒₙ and koff values, was used. The Kd values were determined from the ratios of kₒₙ and koff.

[3] = target: T3, human TREM2 on Expi 293 cells (human, UniProt Q9NZC2 19-230); assay: flow cytometry on Expi 293 cells over-expressing human TREM2; Alexa Fluor 647 anti-Fc secondary
T3 construct: also called Expi-hTREM2; hTREM2
T3 sequence: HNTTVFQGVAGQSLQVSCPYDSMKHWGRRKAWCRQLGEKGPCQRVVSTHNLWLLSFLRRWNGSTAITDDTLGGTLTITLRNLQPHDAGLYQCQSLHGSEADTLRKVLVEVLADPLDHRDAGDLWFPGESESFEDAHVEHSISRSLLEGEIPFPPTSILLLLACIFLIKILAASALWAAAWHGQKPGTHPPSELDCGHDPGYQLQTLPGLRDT
Method: as §1

[4] = target: T4, human TREM2 His (Sino Biological) (human, UniProt Q9NZC2 19-174); assay: SPR, Biacore T200; TREM2-His captured on CM5 chip by anti-His, antibody injected; 1:1 Langmuir fit
T4 construct: Bought reagent; the soluble reagent is probably only the extracellular part; not shown: His tag
T4 sequence: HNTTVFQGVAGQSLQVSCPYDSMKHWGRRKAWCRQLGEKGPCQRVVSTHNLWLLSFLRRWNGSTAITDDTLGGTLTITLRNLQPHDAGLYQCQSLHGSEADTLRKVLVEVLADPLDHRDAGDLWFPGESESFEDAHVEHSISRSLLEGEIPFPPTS
Method: as §2

B1: PI37012 (antibody, human IgG1, kappa, V domains shown)
VH: EVQLLESGGGLVQPGGSLRLSCAASGFTFSNYYMAWVRQAPGKGLEWVSSLTNSGGSTYYADSVKGRFTISRDNSKNTLYLQMNSLRAEDTAVYYCTREWAGSGYFDYWGQGTLVTVSS
VL: DIQMTQSPSSLSASVGDRVTITCKASQNVGNNLAWYQQKPGKAPKLLIYYTSNRFTGVPSRFSGSGSGTDFTLTISSLQPEDFATYYCQRIYNSPWTFGQGTKLEIKR
notes: Humanized anti-TREM2 antibody, human IgG1, produced in HEK293; also called 37012 antibody; PI37012 anti-TREM2 mAb
With B1 the EC50 [1] was 0.5 nM.

B2: PI37013 (antibody, human IgG1, kappa, V domains shown)
VH: EVQLLESGGGLVQPGGSLRLSCAASGFTFSNYYMAWVRQAPGKGLEWVSSLTNSGGSTYYADSVKGRFTISRDNSKNTLYLQMNSLRAEDTAVYYCTREWAGSGYFDYWGQGTLVTVSS
VL: DIQMTQSPSSLSASVGDRVTMTCKASQNVGNNLAWYQQKPGKAPKLLLYYTSNRFTGVPSRFSGSGSGTDFTLTISSVQPEDFATYYCQRIYNSPWTFGQGTKLELKR
notes: Humanized anti-TREM2 antibody, human IgG1
B2 was tested, and the Kd [2] was 1.72 nM, the koff [2] was 0.000888 s⁻¹ and the kon [2] was 517000 M⁻¹ s⁻¹. The EC50 [1] was 1.2 nM, the EC50 [3] was 1.4 nM and the Kd [4] was 4.82 nM. It also gave a koff [4] of 0.00549 s⁻¹ and a kon [4] of 1.14e+06 M⁻¹ s⁻¹.

B3: PI37014 (antibody, human IgG1, kappa, V domains shown)
VH: EVQLLESGGGLVQPGGSLRLSCAASGFTFSNYYMAWVRQAPGKGLEWVASLTNSGGSTYYADSVKGRFTLSRDNSKNTLYLQMNSLRAEDTAVYYCTREWAGSGYFDYWGQGTLVTVSS
VL: DIQMTQSPSSLSASVGDRVTITCKASQNVGNNLAWYQQKPGKAPKLLIYYTSNRFTGVPSRFSGSGSGTDFTLTISSLQPEDFATYYCQRIYNSPWTFGQGTKLEIKR
notes: as for B2
B3 showed a Kd [2] of 1.55 nM, a koff [2] of 0.000732 s⁻¹ and a kon [2] of 471000 M⁻¹ s⁻¹. For the same binder, the EC50 [3] was 1.4 nM, the Kd [4] was 4.74 nM and the koff [4] was 0.00243 s⁻¹. For the same binder, the kon [4] was 511000 M⁻¹ s⁻¹.

B4: PI37017 (antibody, human IgG1, kappa, V domains shown)
VH: EVQLLESGGGLVQPGGSLRLSCAASGFTFSNYYMAWVRQAPGKGLEWVSSLTNSGGSTYYADSVKGRFTISRDNSKNTLYLQMNSLRAEDTAVYYCAKEWAGSGYFDYWGQGTLVTVSS
VL: DIQMTQSPSSLSASVGDRVTITCKASQNVGNNLAWYQQKPGKAPKLLIYYTSNRFTGVPSRFSGSGSGTDFTLTISSLQPEDFATYYCQRIYNSPWTFGQGTKLEIKR
notes: Parent humanized clone, human IgG1; also called 37017 antibody
With B4 the Kd [2] was 18 nM, the koff [2] was 0.00614 s⁻¹ and the kon [2] was 340000 M⁻¹ s⁻¹. For the same binder, the EC50 [1] was 3.6 nM and the EC50 [3] was 23.3 nM.
